Data as given in PMC6461802, “Coupling of ssRNA cleavage with DNase activity in type III-A CRISPR-Csm revealed by cryo-EM and biochemistry” (Cell Research, 2019).
Where “and” joins values, the source holds several entries; their conditions need not be identical. Equal entries are not always repeated.

T1: Cas10 (Csm1);Csm2;Csm3;Csm4 (Streptococcus thermophilus …, UniProt A0A0A7HFE1;A0A0A7HIX1;A0A0A7HIF0;A0A0A7HGA1 1-758;1-121;1-220;1-299, |||)
T1 sequence 1: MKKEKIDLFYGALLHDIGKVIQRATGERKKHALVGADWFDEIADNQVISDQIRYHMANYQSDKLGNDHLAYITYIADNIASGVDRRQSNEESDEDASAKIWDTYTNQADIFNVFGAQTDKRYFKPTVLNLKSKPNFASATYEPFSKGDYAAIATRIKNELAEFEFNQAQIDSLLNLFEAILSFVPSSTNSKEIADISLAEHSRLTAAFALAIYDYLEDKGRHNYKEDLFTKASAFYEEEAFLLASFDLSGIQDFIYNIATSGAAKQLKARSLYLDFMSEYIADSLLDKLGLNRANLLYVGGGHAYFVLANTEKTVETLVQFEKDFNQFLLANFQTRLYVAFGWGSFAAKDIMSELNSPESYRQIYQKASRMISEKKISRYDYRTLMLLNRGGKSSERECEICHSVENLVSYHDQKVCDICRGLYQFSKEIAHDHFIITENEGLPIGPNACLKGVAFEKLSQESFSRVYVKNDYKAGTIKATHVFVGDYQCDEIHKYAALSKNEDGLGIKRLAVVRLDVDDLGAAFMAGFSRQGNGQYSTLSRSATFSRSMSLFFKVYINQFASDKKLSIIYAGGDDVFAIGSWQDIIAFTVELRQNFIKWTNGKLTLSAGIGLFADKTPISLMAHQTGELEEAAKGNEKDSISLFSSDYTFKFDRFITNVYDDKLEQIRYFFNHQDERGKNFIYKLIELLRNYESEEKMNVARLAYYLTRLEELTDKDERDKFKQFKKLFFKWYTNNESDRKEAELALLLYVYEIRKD
T1 sequence 2: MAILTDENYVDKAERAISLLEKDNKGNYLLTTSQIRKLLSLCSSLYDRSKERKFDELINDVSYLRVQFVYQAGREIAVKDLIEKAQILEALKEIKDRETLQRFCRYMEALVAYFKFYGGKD
T1 sequence 3: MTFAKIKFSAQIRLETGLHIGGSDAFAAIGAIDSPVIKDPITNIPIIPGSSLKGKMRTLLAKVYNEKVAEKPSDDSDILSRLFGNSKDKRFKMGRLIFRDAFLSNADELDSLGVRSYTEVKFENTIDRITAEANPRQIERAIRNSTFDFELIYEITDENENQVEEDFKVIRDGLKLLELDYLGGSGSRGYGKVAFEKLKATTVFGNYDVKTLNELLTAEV
T1 sequence 4: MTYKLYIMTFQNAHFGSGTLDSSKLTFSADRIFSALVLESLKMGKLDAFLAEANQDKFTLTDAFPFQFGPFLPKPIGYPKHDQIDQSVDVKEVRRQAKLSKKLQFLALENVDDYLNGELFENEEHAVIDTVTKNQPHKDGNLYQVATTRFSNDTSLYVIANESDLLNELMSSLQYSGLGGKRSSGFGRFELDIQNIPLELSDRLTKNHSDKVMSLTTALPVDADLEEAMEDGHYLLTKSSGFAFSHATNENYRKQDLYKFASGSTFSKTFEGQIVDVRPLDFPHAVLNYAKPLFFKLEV


Assays:
[1] = biological target: the molecule itself; assay: cryo-EM structure; apo state: StCsm complex with 40 nt crRNA, wild-type Csm3; big (3.4 Å) and small (3.3 Å) particle populations; ~0.4 mg/mL, buffer 10 mM Tris-HCl pH 8.0, 150 mM NaCl, 3 mM DTT
[2] = biological target: the molecule itself; assay: cryo-EM structure; target ssRNA-bound state: StCsm complex with 40 nt crRNA and 49 nt target ssRNA, Csm3 D33A; big (3.4 Å) and small (3.5 Å) particle populations; ~0.4 mg/mL, buffer 10 mM Tris-HCl pH 8.0, 150 mM NaCl, 3 mM DTT
[3] = biological target: T1, Cas10 (Csm1);Csm2;Csm3;Csm4; assay: cryo-EM; small conformation, 3.3 A; endogenous ATP in Cas10; Cryo-EM: complex ~0.4 mg/mL, purified in 10 mM Tris-HCl pH 8.0, 150 mM NaCl, 3 mM DTT; grids blotted at 4 C; ternary reconstitution conditions not given; settings: protein: recombinant;recombinant;recombinant;recombinant; tags: ;His (N-terminal, pET-28a);;; copies: 1;3;5;1; single strand, 1 copy

Binder	stoichiometry N [1]	further results
Csm3 of the Streptococcus thermophilus type III-A Csm complex (wild type, apo state) (natural protein, Streptococcus thermophilus DGCC8004, Csm3, Streptococcus thermophilus DGCC8004; also called Csm3a) MTFAKIKFSAQIRLETGLHIGGSDAFAAIGAIDSPVIKDPITNIPIIPGSSLKGKMRTLLAKVYNEKVAEKPSDDSDILSRLFGNSKDKRFKMGRLIFRDAFLSNADELDSLGVRSYTEVKFENTIDRITAEANPRQIERAIRNSTFDFELIYEITDENENQVEEDFKVIRDGLKLLELDYLGGSGSRGYGKVAFEKLKATTVFGNYDVKTLNELLTAEV	7 and 5	–
Csm3 D33A of the Streptococcus thermophilus type III-A Csm complex (target ssRNA-bound state) (natural protein, Streptococcus thermophilus DGCC8004, Csm3, Streptococcus thermophilus DGCC8004, with D33A to eliminate ssRNA cleavage) MTFAKIKFSAQIRLETGLHIGGSDAFAAIGAIASPVIKDPITNIPIIPGSSLKGKMRTLLAKVYNEKVAEKPSDDSDILSRLFGNSKDKRFKMGRLIFRDAFLSNADELDSLGVRSYTEVKFENTIDRITAEANPRQIERAIRNSTFDFELIYEITDENENQVEEDFKVIRDGLKLLELDYLGGSGSRGYGKVAFEKLKATTVFGNYDVKTLNELLTAEV	–	stoichiometry N [2]: 7 and 5
ACGGAAACUUUCGUAACUGUUUAAUUCUGUUCACUUAUUC (ssRNA) [40 nt crRNA]	–	binding result [3]: binds
Csm2 of the Streptococcus thermophilus type III-A Csm complex (natural protein, Streptococcus thermophilus DGCC8004, Csm2, Streptococcus thermophilus DGCC8004; csm2 is present both on the untagged gene cassette and on the His-tag plasmid, so the 3 or 5 copies in the complex may be a mix of tagged and untagged chains; No tag removal is described; also called Csm2a; Csm2b) MAILTDENYVDKAERAISLLEKDNKGNYLLTTSQIRKLLSLCSSLYDRSKERKFDELINDVSYLRVQFVYQAGREIAVKDLIEKAQILEALKEIKDRETLQRFCRYMEALVAYFKFYGGKD	5 and 3	–
